{"source": "the DeepSol protein solubility set", "data": [{"assay": "soluble on expression in E. coli; label from the status in PepcDB or PDB records", "values": [{"sequence": "MGSSHHHHHHGKTIFVIVPTNEEQVAFLEALAKQDELNFDWQNPPTEPGQPVVILIPSDMVEWFLEMLKAKGIPFTVYVEEGGSENLYFQGGGGGGDRMRQGWLRSSAALLERVHGHLKDQDRIFTNLYNDFGTGIDAAERRGDWYRTKDILLKGHDWVINEIKASGLRGRGGAGFPSGLKWSFMPKKKQDDRPSYIVVNCDESEPGTCKDREIMRHEPHKVVEGALLAGFAMRARYGYIYIRGEFYNEWRSVEKAIHEAYEKGYLGKNACGSGWDFDLYTYRGAGAYICGEETAMIASIEGGQGKPRLKPPFPANVGLYGCPTTVTNCETVAVSPTIIRRGPQWFAQFGRKGNAGTKLFCISGHVNRPCTVEEEMSMPLRELLERHAGGVRGGWDNLLCVIPGGSSCPLIPKHICDDILMDYDALKEAQTGLGTAAVIVMDKSTDVINAIERLSQFYMHESCGQCTPCREGSPWLDKMMKRFVNGNAKKEEIYTLWDVSKQMEGRSICALGTAAAWPVQGLIRHFKPLMEERIERFWEANPHWGQPGSPWRRWKTHRYYTMQKGDRLNWDGKIVRNWN", "soluble on expression in E. coli": "not soluble"}, {"sequence": "MGSSHHHHHHSSENLYFQGHMLANNNKRSKLSTVPSSRPIRVGFVGLTSGKSWVAKTHFLAIQQLSSQFQIVALYNPTLKSSLQTIEQLQLKHATGFDSLESFAQYKDIDMIVVSVKVPEHYEVVKNILEHSSQNLNLRYLYVEWALAASVQQAEELYSISQQRANLQTIICLQGRKSPYIVRAKELISEGCIGDINSIEISGNGGWYGYERPMRSPEYLYDIESGVNLISNSFGHTIDVLQYITGSYFQKINAMISNNIPTQFLLDENGKRTKETISKTCPDHLLFQGILENGKVPVSCSFKGGTPVKKLTKNLVIDIHGTKGDLKIEGDAGFVEISNLVLYFYGIKNGNGSSNGTDNNGAAAIKDKEKVTKSPSPSTGTSEEEQTMEVFHLRNYNSVVGNILRIYESIADYHFLGKPESKSSRGPDDLFASTKFDKQGFRFEGFPTFKDAIILHRLIDAVFRSDKEEKTLDVSKIMI", "soluble on expression in E. coli": "soluble"}, {"sequence": "MGSSHHHHHHSSGLVPRGSDLQEDEDGVYFSSYGHYGIHEEMLKDKIRTESYRDFIYQNPHIFKDKVVLDVGCGTGILSMFAAKAGAKKVLGVDQSEILYQAMDIIRLNKLEDTITLIKGKIEEVHLPVEKVDVIISEWMGYFLLFESMLDSVLYAKNKYLAKGGSVYPDICTISLVAVSDVNKHADRIAFWDDVYGFKMSCMKKAVIPEAVVEVLDPKTLISEPCGIKHIDCHTTSISDLEFSSDFTLKITRTSMCTAIAGYFDIYFEKNCHNRVVFSTGPQSTKTHWKQTVFLLEKPFSVKAGEALKGKVTVHKNKKDPRSLTVTLTLNNSTQTYGLQ", "soluble on expression in E. coli": "soluble"}, {"sequence": "MGSSHHHHHHSSGLVPRGSHMALSRGLPRELAEAVAGGRVLVVGAGGIGCELLKNLVLTGFSHIDLIDLDTIDVSNLNRQFLFQKKHVGRSKAQVAKESVLQFYPKANIVAYHDSIMNPDYNVEFFRQFILVMNALDNRAARNHVNRMCLAADVPLIESGTAGYLGQVTTIKKGVTECYECHPKPTQRTFPGCTIRNTPSEPIHCIVWAKYLFNQLFGEEDADQEVSPDRADPEAAWEPTEAEARARACNEDGDIKRISTKEWAKSTGYDPVKLFTKLFKDDIRYLLTMDKLWRKRKPPVPLDWAEVQSQGEETNASDQQNEPQLGLKDQQVLDVKSYARLFSKSIETLRVHLAEKGDGAELIWDKDDPSAMDFVTSAANLRMHIFSMNMKSRFDIKSMAGNIIPAIATTNAVIAGLIVLEGLKILSGKIDQCRTIFLNKQPNPRKKLLVPCALDPPNPNCYVCASKPEVTVRLNVHKVTVLTLQDKIVKEKFAMVAPDVQIEDGKGTILISSEEGETEANNHKKLSEFGIRNGSRLQADDFLQDYTLLINILHSEDLGKDVEFEVVGDAPEKVGPKQAEDAAKSITNGSDDGAQPSTSTAQEQDDVLIVDSDEEDSSNNADVSEEERSRKRKLDEKENLSAKRSRIEQKEELDDVIALD", "soluble on expression in E. coli": "soluble"}, {"sequence": "MGSSHHHHHHSSGLVPRGSHMASMAKMRAVDAAMYVLEKEGITTAFGVPGAAINPFYSAMRKHGGIRHILARHVEGASHMAEGYTRATAGNIGVCLGTSGPAGTDMITALYSASADSIPILCITGQAPRARLHKEDFQAVDIEAIAKPVSKMAVTVREAALVPRVLQQAFHLMRSGRPGPVLVDLPFDVQVAEIEFDPDMYEPLPVYKPAASRMQIEKAVEMLIQAERPVIVAGGGVINADAAALLQQFAELTSVPVIPTLMGWGCIPDDHELMAGMVGLQTAHRYGNATLLASDMVFGIGNRFANRHTGSVEKYTEGRKIVHIDIEPTQIGRVLCPDLGIVSDAKAALTLLVEVAQEMQKAGRLPCRKEWVADCQQRKRTLLRKTHFDNVPVKPQRVYEEMNKAFGRDVCYVTTIGLSQIAAAQMLHVFKDRHWINCGQAGPLGWTIPAALGVCAADPKRNVVAISGDFDFQFLIEELAVGAQFNIPYIHVLVNNAYLGLIRQSQRAFDMDYCVQLAFENINSSEVNGYGVDHVKVAEGLGCKAIRVFKPEDIAPAFEQAKALMAQYRVPVVVEVILERVTNISMGSELDNVMEFEDIADNAADAPTETCFMHYE", "soluble on expression in E. coli": "soluble"}, {"sequence": "MGSSHHHHHHSSGLVPRGSHMDTTVPTFSLAELQQGLHQDEFRRCLRDKGLFYLTDCGLTDTELKSAKDLVIDFFEHGSEAEKRAVTSPVPTMRRGFTGLESESTAQITNTGSYSDYSMCYSMGTADNLFPSGDFERIWTQYFDRQYTASRAVAREVLRATGTEPDGGVEAFLDCEPLLRFRYFPQVPEHRSAEEQPLRMAPHYDLSMVTLIQQTPCANGFVSLQAEVGGAFTDLPYRPDAVLVFCGAIATLVTGGQVKAPRHHVAAPRRDQIAGSSRTSSVFFLRPNADFTFSVPLARECGFDVSLDGETATFQDWIGGNYVNIRRTSKA", "soluble on expression in E. coli": "soluble"}, {"sequence": "MGSSHHHHHHSSGLVPRGSHMEEDGGIIRRIQTRGEGYAKPNEGAIVEVALEGYYKDKLFDQRELRFEIGEGENLDLPYGLERAIQRMEKGEHSIVYLKPSYAFGSVGKEKFQIPPNAELKYELHLKSFEKAKESWEMNSEEKLEQSTIVKERGTVYFKEGKYKQALLQYKKIVSWLEYESSFSNEEAQKAQALRLASHLNLAMCHLKLQAFSAAIESCNKALELDSNNEKGLSRRGEAHLAVNDFELARADFQKVLQLYPNNKAAKTQLAVCQQRIRRQLAREKKLYANMFERLAEEENKAKAEASSGDHPTDTEMKEEQKSNTAGSQSQVETEA", "soluble on expression in E. coli": "soluble"}, {"sequence": "MGSSHHHHHHSSGLVPRGSHMNAPIETDVLILGGGPVGMALALDLAHRQVGHLVVEQTDGTITHPRVGTIGPRSMELFRRWGVAKQIRTAGWPGDHPLDAAWVTRVGGHEVYRIPLGTADTRATPEHTPEPDAICPQHWLAPLLAEAVGERLRTRSRLDSFEQRDDHVRATITDLRTGATRAVHARYLVACDGASSPTRKALGIDAPPRHRTQVFRNILFRAPELRSLLGERAALFFFLMLSSSLRFPLRALDGRGLYRLTVGVDDASKSTMDSFELVRRAVAFDTEIEVLSDSEWHLTHRVADSFSAGRVFLTGDAAHTLSPSGGFGMNTGIGSAADLGWKLAATLRGWAGPGLLATYEEERRPVAITSLEEANVNLRRTMDRELPPGLHDDGPRGERIRAAVAEKLERSGARREFDAPGIHFGHTYRSSIVCGEPETEVATGGWRPSARPGARAPHAWLTPTTSTLDLFGRGFVLLSFGTTDGVEAVTRAFADRHVPLETVTCHAPEIHALYERAHVLVRPDGHVAWRGDHLPAELGGLVDKVRGAA", "soluble on expression in E. coli": "soluble"}, {"sequence": "MGSSHHHHHHSSGLVPRGSHMSELLATYLLTEPGADTEKKAEQIATGLTVGSWTDLPLVKQEQMQKHKGRVIKVEEREGTAASEKQAVITIAYPEINFSQDIPALLTTVFGKLSLDGKIKLIDLHFSEAFKRALPGPKFGVYGIRKLLGEFERPLLMSIFKGVIGRDLSDIKEQLRQQALGGVDLIKDDEIFFETGLAPFETRIAEGKQILKETYEQTGHKTLYAVNLTGRTADLKDKARRAAELGADALLFNVFAYGLDVMQGLAEDPEIPVPIMAHPAVSGAFTSSPFYGFSHALLLGKLNRYCGADFSLFPSPYGSVALPRADALAIHEECVREDAFNQTFAVPSAGIHPGMVPLLMRDFGIDHIINAGGGVHGHPNGAQGGGRAFRAIIDAVLEAQPIDEKAEQCKDLKLALDKWGKAEAV", "soluble on expression in E. coli": "soluble"}, {"sequence": "MGSSHHHHHHSSGLVPRGSHMVHAFPHGTTATPTAIAVPPSLRLPVIEAAFPRQLHPYWPKLQETTRTWLLEKRLMPADKVEEYADGLCYTDLMAGYYLGAPDEVLQAIADYSAWFFVWDDRHDRDIVHGRAGAWRRLRGLLHTALDSPGDHLHHEDTLVAGFADSVRRLYAFLPATWNARFARHFHTVIEAYDREFHNRTRGIVPGVEEYLELRRLTFAHWIWTDLLEPSSGCELPDAVRKHPAYRRAALLSQEFAAWYNDLCSLPKEIAGDEVHNLGISLITHHSLTLEEAIGEVRRRVEECITEFLAVERDALRFADELADGTVRGKELSGAVRANVGNMRNWFSSVYWFHHESGRYMVDSWDDRSTPPYVNNEAAGEK", "soluble on expression in E. coli": "soluble"}, {"sequence": "MGSSHHHHHHSSGRENLYFQGMADQDQLKALRLRIDSLDEKLLELISERARCAQDVARVKTQTLGEGEAPVFYRPEREAWVLKHIMQLNKGPLDNEEVARLFREIMSSCLALEQPLKVAYLGPEGTFTQAAALKHFGNAVISTPMAAIDEVFREVAAGAVNFGVVPVENSTEGAVNHTLDSFLEHDMVICGEVELRIHHHLLVGETTKTDNITRIYSHAQSLAQCRKWLDSHYPSVERVAVSSNADAAKRVKSEWNSAAIAGDMAASLYDLSKLHEKIEDRPDNSTRFLIIGNQEVPPTGDDKTSIIVSMRNKPGALHELLVPFHNNGIDLTRIETRPSRSGKWTYVFFIDFVGHHKEPLIKDVLEKIGQEAVALKVLGSYPKAVL", "soluble on expression in E. coli": "soluble"}, {"sequence": "MGSTKSRPLRDANGTPKFRHESIACVFRVHPQQGVDVLTVIRSRPPYADMSALPSGALETNEMLKDACLRHLSLSGVHPSMVSHIEQLDTRSAIDRDPYDRTIATAHLCLIPWDIDPSVTNGSFTPLVDLDELAFDHKNIIEQGLYRLRAKLSYSNIGFALAPRLFTISDLAKTYSHVLTYNVSPTNLQRILTRRNQLQPTTARAIGSGRPARLFTFTTDRLEITDPFATLKPTESRKCKS", "soluble on expression in E. coli": "not soluble"}, {"sequence": "MGSVRKASAWLGLVDDNNDDERYYDDDYSEGPESGDAWVTDPRVKVASDVAEEKGRRIATVTPDSFRDARAIGELFRDGVPVIVNLTAMEGTDAKRVVDFAAGLIFGLRGSIERVSTRVFLLSPADTQVISGESAAHRSDGFFNQSLEHHHHHH", "soluble on expression in E. coli": "not soluble"}, {"sequence": "MGTEFNGLFDEWAHTYDSFVQGEDIQYKEVFAHYEDILEDVVNKSFGNVLEFGVGTGNLTNKLLLAGRTVYGIEPSREMRMIAKEKLPKEFSITEGDFLSFEVPTSIDTIVSTYAFHHLTDDEKNVAIAKYSQLLNKGGKIVFADTIFADQDAYDKTVEAAKQRGFHQLANDLQTEYYTRIPVMQTIFENNGFHVTFTRLNHFVWVMEATKQLEHHHHHH", "soluble on expression in E. coli": "soluble"}, {"sequence": "MGTVLCSCLLGDNAKVRLKLSKMLEEEASGFYPDVLPEGSVSICEVEMKGCRREFYADRRSEEIEIGTPVIVEADGGFDMGVVYSTGRIALRKLQLKGLVSEVEKLPAIMRRATEEEVREFTEIRKREPEIREACLKRIERHQLDMKLVDIDLRLDQQKLSVYYTATHRIDFRGLVRDLAGEFKARIQMVQITTREEARRTNAQGSCGCALCCSTWMQKIHSNPFAEKPQMPDSMNGDNFSFNTIGLCNRPKCCLGFSKTNGKNGNCHHGKVRQNGWPSVGTTFTVRDGNAVVEGVDQQKKSIWIRYVSTGQKRRISLDQYNNMAGKRQGGQALEHHHHHH", "soluble on expression in E. coli": "not soluble"}]}]}
